# Experimental data from US20210356479A1 (BLOODWORKS, published 2021).
# T1: human Kell glycoprotein, k form (KEL2) (human, UniProt P23276 1-732)
# T1 construct: whole, on cells; On human k/k or K-k+ RBCs; also called k antigen
# T1 sequence (looked up): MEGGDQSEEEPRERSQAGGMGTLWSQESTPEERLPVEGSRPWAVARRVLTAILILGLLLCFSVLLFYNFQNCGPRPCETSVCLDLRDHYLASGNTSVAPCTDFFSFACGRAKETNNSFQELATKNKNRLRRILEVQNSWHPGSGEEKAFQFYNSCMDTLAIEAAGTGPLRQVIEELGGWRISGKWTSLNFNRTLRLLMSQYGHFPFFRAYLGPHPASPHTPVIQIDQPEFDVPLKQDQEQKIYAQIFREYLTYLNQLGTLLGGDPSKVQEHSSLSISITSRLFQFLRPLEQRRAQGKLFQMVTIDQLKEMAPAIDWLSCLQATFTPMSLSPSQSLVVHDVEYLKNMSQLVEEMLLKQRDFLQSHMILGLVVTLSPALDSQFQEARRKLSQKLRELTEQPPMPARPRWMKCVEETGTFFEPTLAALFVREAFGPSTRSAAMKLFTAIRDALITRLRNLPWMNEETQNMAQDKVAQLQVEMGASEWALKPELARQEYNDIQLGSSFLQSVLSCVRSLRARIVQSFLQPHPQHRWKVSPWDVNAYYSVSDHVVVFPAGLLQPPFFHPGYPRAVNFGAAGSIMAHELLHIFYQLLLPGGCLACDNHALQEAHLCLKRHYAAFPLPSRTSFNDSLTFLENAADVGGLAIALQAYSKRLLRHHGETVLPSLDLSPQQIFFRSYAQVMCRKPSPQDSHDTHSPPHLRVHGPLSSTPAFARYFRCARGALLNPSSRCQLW
# T2: human Kell glycoprotein, K form (KEL1) (human, UniProt P23276 1-732)
# T2 construct: whole, on cells; On human K/K or K+k+ RBCs and on RBCs of K transgenic mice; also called K antigen; K variant
# T2 sequence (looked up): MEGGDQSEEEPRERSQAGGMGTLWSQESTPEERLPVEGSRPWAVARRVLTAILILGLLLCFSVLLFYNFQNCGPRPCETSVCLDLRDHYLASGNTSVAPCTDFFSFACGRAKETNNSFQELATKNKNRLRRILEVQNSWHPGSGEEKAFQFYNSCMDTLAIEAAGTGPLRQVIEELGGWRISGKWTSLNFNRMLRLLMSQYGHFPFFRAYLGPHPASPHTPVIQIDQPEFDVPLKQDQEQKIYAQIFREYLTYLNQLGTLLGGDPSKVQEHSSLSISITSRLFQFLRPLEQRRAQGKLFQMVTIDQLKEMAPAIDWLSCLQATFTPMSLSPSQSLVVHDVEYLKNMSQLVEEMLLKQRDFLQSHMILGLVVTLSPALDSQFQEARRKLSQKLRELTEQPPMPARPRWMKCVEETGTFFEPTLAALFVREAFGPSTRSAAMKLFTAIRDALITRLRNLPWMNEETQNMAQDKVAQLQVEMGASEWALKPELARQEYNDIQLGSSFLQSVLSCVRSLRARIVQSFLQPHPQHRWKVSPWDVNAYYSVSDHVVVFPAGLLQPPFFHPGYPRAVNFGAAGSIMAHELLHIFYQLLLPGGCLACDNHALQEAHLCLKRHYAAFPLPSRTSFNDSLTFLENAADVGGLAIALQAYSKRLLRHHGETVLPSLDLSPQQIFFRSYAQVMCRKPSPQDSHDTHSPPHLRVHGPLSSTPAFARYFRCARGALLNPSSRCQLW
# Tests used:
# [1] = biological target: T1, human Kell glycoprotein, k form (KEL2); experiment: flow cytometry on human K-k+ RBCs
# [2] = biological target: T2, human Kell glycoprotein, K form (KEL1); experiment: flow cytometry on human K+k+ RBCs, detected with polyclonal anti-IgG
# Description: Flow cytometry consisted of incubating test RBCs with PUMA 1 variants, followed by the anti-IgG being evaluated, followed by a detection reagent. Test RBCs included RBCs from K mice, wild-type mice, and reagent RBCs from humans with the phenotype of (K+k+) or (K−k+). Test RBCs were resuspended in 50 microliters of supernatants of PUMA 1 isoallotypes; in some cases a 1/10 dilution in phosphate buffered saline (PBS) was used. For purified IgG1-IgG4 PUMA 1, the antibodies were diluted in PBS at the indicated concentrations. The tested anti-IgG reagents were used undiluted. Detection reagents consisted of donkey anti-rabbit conjugated to phycoerythrin at a 1/200 dilution (Affymetrix cat #12-4739-81, Santa Clara, Calif.), goat anti-mouse IgM conjugated to allophycocyanin at a 1/100 dilution (BD Biosciences, cat #550826, San Jose, Calif.), and goat anti-mouse Igs conjugated to allophycocyanin at a 1/100 dilution (SouthernBiotech cat #1020-11s, Birmingham, Ala.). All anti-IgG subclass antibodies were conjugated to phycoerythrin, were purchased from SouthernBiotech (catalog numbers 9056-09, 9070-09, 9210-09, 9200-09), and were used at a dilution of 1.200. All incubations were performed for 30 min at room temperature, followed by three washes with PBS. All flow cytometry was performed on an Accuri 4 color cytometer (BD biosciences, San Jose Calif.) and all data was analyzed with Flo-Jo version 10.
# To assess the sensitivity of commercially available anti-IgG preparations for different human IgG subclasses bound to RBCs, K+k+ RBCs were first incubated with PUMA 1 of the different human IgG subclasses, followed by incubation with anti-IgG. Treated RBCs were then stained with a fluorescently labeled antibody specific for the species in which the anti-IgG was generated (and non-reactive with human IgG). For each anti-IgG, the same secondary antibody was used to detect binding of the anti-IgG to each human PUMA 1 IgG subclass. To assess relative sensitivity, titrations of each PUMA 1 IgG subclass were carried out and samples were analyzed by flow cytometry using mean fluorescent intensity (MFI) to quantify staining (FIGS. 28A, 28B).
binding result [1],binding result [2],Binder
no binding,binds,"PUMA 1 human IgG3-09 isoallotype (antibody, Isoallotype named in CLM-00007; not shown: human IgG3 heavy chain constant region, isoallotype IGHG3*09; human kappa light chain constant region (vector pFUSE2-CLIg-hk)) heavy: EVQLQQSGPELVKPGASVKMSCKASGYTFTDYYMKWVKQSHGKSLEWIGDLNPNNGDTFYNQKFKGKATLTVDKSSSTAYIQLNSLTSEDSAVYYCAREAGSSFGSSCNYWGQGTTLTVS light: SVVMTQTPKFLLVSAGDRVTITCKASQTVSKDVAWYQQQPGQSPKLLIYYASNRYTGVPDRFTGSGYGTDFTFTISTVQAEDLAVYFCQQDYSSPYTFGGGTKLEIK"
no binding,binds,"PUMA 1 human IgG4-03 isoallotype (antibody, not shown: human IgG4 heavy chain constant region, isoallotype IGHG4*03; human kappa light chain constant region (vector pFUSE2-CLIg-hk)) heavy: EVQLQQSGPELVKPGASVKMSCKASGYTFTDYYMKWVKQSHGKSLEWIGDLNPNNGDTFYNQKFKGKATLTVDKSSSTAYIQLNSLTSEDSAVYYCAREAGSSFGSSCNYWGQGTTLTVS light: SVVMTQTPKFLLVSAGDRVTITCKASQTVSKDVAWYQQQPGQSPKLLIYYASNRYTGVPDRFTGSGYGTDFTFTISTVQAEDLAVYFCQQDYSSPYTFGGGTKLEIK"
no binding,binds,"PUMA 1 human IgG3-15 isoallotype (antibody, Isoallotype named in CLM-00007; not shown: human IgG3 heavy chain constant region, isoallotype IGHG3*15; human kappa light chain constant region (vector pFUSE2-CLIg-hk)) heavy: EVQLQQSGPELVKPGASVKMSCKASGYTFTDYYMKWVKQSHGKSLEWIGDLNPNNGDTFYNQKFKGKATLTVDKSSSTAYIQLNSLTSEDSAVYYCAREAGSSFGSSCNYWGQGTTLTVS light: SVVMTQTPKFLLVSAGDRVTITCKASQTVSKDVAWYQQQPGQSPKLLIYYASNRYTGVPDRFTGSGYGTDFTFTISTVQAEDLAVYFCQQDYSSPYTFGGGTKLEIK"
no binding,binds,"PUMA 1 human IgG3-12 isoallotype (antibody, Isoallotype named in CLM-00007; not shown: human IgG3 heavy chain constant region, isoallotype IGHG3*12; human kappa light chain constant region (vector pFUSE2-CLIg-hk)) heavy: EVQLQQSGPELVKPGASVKMSCKASGYTFTDYYMKWVKQSHGKSLEWIGDLNPNNGDTFYNQKFKGKATLTVDKSSSTAYIQLNSLTSEDSAVYYCAREAGSSFGSSCNYWGQGTTLTVS light: SVVMTQTPKFLLVSAGDRVTITCKASQTVSKDVAWYQQQPGQSPKLLIYYASNRYTGVPDRFTGSGYGTDFTFTISTVQAEDLAVYFCQQDYSSPYTFGGGTKLEIK"
no binding,binds,"PUMA 1 human IgG4-02 isoallotype (antibody, not shown: human IgG4 heavy chain constant region, isoallotype IGHG4*02; human kappa light chain constant region (vector pFUSE2-CLIg-hk)) heavy: EVQLQQSGPELVKPGASVKMSCKASGYTFTDYYMKWVKQSHGKSLEWIGDLNPNNGDTFYNQKFKGKATLTVDKSSSTAYIQLNSLTSEDSAVYYCAREAGSSFGSSCNYWGQGTTLTVS light: SVVMTQTPKFLLVSAGDRVTITCKASQTVSKDVAWYQQQPGQSPKLLIYYASNRYTGVPDRFTGSGYGTDFTFTISTVQAEDLAVYFCQQDYSSPYTFGGGTKLEIK"
no binding,binds,"PUMA 1 human IgG3-11 isoallotype (antibody, Isoallotype named in CLM-00007; not shown: human IgG3 heavy chain constant region, isoallotype IGHG3*11; human kappa light chain constant region (vector pFUSE2-CLIg-hk)) heavy: EVQLQQSGPELVKPGASVKMSCKASGYTFTDYYMKWVKQSHGKSLEWIGDLNPNNGDTFYNQKFKGKATLTVDKSSSTAYIQLNSLTSEDSAVYYCAREAGSSFGSSCNYWGQGTTLTVS light: SVVMTQTPKFLLVSAGDRVTITCKASQTVSKDVAWYQQQPGQSPKLLIYYASNRYTGVPDRFTGSGYGTDFTFTISTVQAEDLAVYFCQQDYSSPYTFGGGTKLEIK"
no binding,binds,"PUMA 1 human IgG3-16 isoallotype (antibody, Isoallotype named in CLM-00007; not shown: human IgG3 heavy chain constant region, isoallotype IGHG3*16; human kappa light chain constant region (vector pFUSE2-CLIg-hk)) heavy: EVQLQQSGPELVKPGASVKMSCKASGYTFTDYYMKWVKQSHGKSLEWIGDLNPNNGDTFYNQKFKGKATLTVDKSSSTAYIQLNSLTSEDSAVYYCAREAGSSFGSSCNYWGQGTTLTVS light: SVVMTQTPKFLLVSAGDRVTITCKASQTVSKDVAWYQQQPGQSPKLLIYYASNRYTGVPDRFTGSGYGTDFTFTISTVQAEDLAVYFCQQDYSSPYTFGGGTKLEIK"
no binding,binds,"PUMA 1 human IgG3-18 isoallotype (antibody, Isoallotype named in CLM-00007; not shown: human IgG3 heavy chain constant region, isoallotype IGHG3*18; human kappa light chain constant region (vector pFUSE2-CLIg-hk)) heavy: EVQLQQSGPELVKPGASVKMSCKASGYTFTDYYMKWVKQSHGKSLEWIGDLNPNNGDTFYNQKFKGKATLTVDKSSSTAYIQLNSLTSEDSAVYYCAREAGSSFGSSCNYWGQGTTLTVS light: SVVMTQTPKFLLVSAGDRVTITCKASQTVSKDVAWYQQQPGQSPKLLIYYASNRYTGVPDRFTGSGYGTDFTFTISTVQAEDLAVYFCQQDYSSPYTFGGGTKLEIK"
no binding,binds,"PUMA 1 human IgG3-17 isoallotype (antibody, Isoallotype named in CLM-00007; not shown: human IgG3 heavy chain constant region, isoallotype IGHG3*17; human kappa light chain constant region (vector pFUSE2-CLIg-hk)) heavy: EVQLQQSGPELVKPGASVKMSCKASGYTFTDYYMKWVKQSHGKSLEWIGDLNPNNGDTFYNQKFKGKATLTVDKSSSTAYIQLNSLTSEDSAVYYCAREAGSSFGSSCNYWGQGTTLTVS light: SVVMTQTPKFLLVSAGDRVTITCKASQTVSKDVAWYQQQPGQSPKLLIYYASNRYTGVPDRFTGSGYGTDFTFTISTVQAEDLAVYFCQQDYSSPYTFGGGTKLEIK"
no binding,binds,"PUMA 1 human IgG3-13 isoallotype (antibody, also called PUMA1-IgG3-13; not shown: human kappa light chain constant region (vector pFUSE2-CLIg-hk)) heavy: EVQLQQSGPELVKPGASVKMSCKASGYTFTDYYMKWVKQSHGKSLEWIGDLNPNNGDTFYNQKFKGKATLTVDKSSSTAYIQLNSLTSEDSAVYYCAREAGSSFGSSCNYWGQGTTLTVS light: SVVMTQTPKFLLVSAGDRVTITCKASQTVSKDVAWYQQQPGQSPKLLIYYASNRYTGVPDRFTGSGYGTDFTFTISTVQAEDLAVYFCQQDYSSPYTFGGGTKLEIK"
no binding,binds,"PUMA 1 human IgG3-19 isoallotype (antibody, Isoallotype named in CLM-00007; not shown: human IgG3 heavy chain constant region, isoallotype IGHG3*19; human kappa light chain constant region (vector pFUSE2-CLIg-hk)) heavy: EVQLQQSGPELVKPGASVKMSCKASGYTFTDYYMKWVKQSHGKSLEWIGDLNPNNGDTFYNQKFKGKATLTVDKSSSTAYIQLNSLTSEDSAVYYCAREAGSSFGSSCNYWGQGTTLTVS light: SVVMTQTPKFLLVSAGDRVTITCKASQTVSKDVAWYQQQPGQSPKLLIYYASNRYTGVPDRFTGSGYGTDFTFTISTVQAEDLAVYFCQQDYSSPYTFGGGTKLEIK"
no binding,binds,"PUMA 1 human IgG3-14 isoallotype (antibody, Isoallotype named in CLM-00007; not shown: human IgG3 heavy chain constant region, isoallotype IGHG3*14; human kappa light chain constant region (vector pFUSE2-CLIg-hk)) heavy: EVQLQQSGPELVKPGASVKMSCKASGYTFTDYYMKWVKQSHGKSLEWIGDLNPNNGDTFYNQKFKGKATLTVDKSSSTAYIQLNSLTSEDSAVYYCAREAGSSFGSSCNYWGQGTTLTVS light: SVVMTQTPKFLLVSAGDRVTITCKASQTVSKDVAWYQQQPGQSPKLLIYYASNRYTGVPDRFTGSGYGTDFTFTISTVQAEDLAVYFCQQDYSSPYTFGGGTKLEIK"
